From the supplement of paper PMC12667976
± gives the standard error.

B1: library; numbered along this chain (parent)
chain: MATDAALRRLLRLHRTEIAVAVDSAFPLLHALADHDVVPEDKFQETLHLKEKEGCPQAFHALLSWLLTQDSTAILDFWRVLFKDYNLERYGRLQPILDSFPKDVDLSQPRKGRKPPAVPKALVPPPRLPTKRKASEEARAAAPAALTPRGTASPGSQLKAKPPKKPESSAEQQRLPLGNGIQTMSASVQRAVAMSSGDVPGARGAVEGILIQQVFESGGSKKCIQVGGEFYTPSKFEDSGSGKNKARSSSGPKPLVRAKGAQGAAPGGGEARLGQQGSVPAPLALPSDPQLHQKNEDECAVCRDGGELICCDGCPRAFHLACLSPPLREIPSGTWRCSSCLQATVQEVQPRAEEPRPQEPPVETPLPPGLRSAGEEVRGPPGEPLAGMDTTLVYKHLPAPPSAAPLPGLDSSALHPLLCVGPEGQQNLAPGARCGVCGDGTDVLRCTHCAAAFHWRCHFPAGTSRPGTGLRCRSCSGDVTPAPVEGVLAPSPARLAPGPAKDDTASHEPALHRDDLESLLSEHTFDGILQWAIQSMARPAAPFPS

Variants of: B1
Test: AIRE transcriptional activation functional score (insulin promoter-GFP; nonsense median 0, synonymous median 1) (normalised score); higher = higher AIRE activity (more reporter activation)
Settings: with insulin promoter-GFP reporter in HEK293
Protocol: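 Deep mutational scan of full-length human AIRE (codon-optimized cDNA, DT-POPCode NNN libraries over three regions) integrated at a Bxb1 landing pad in HEK293 cells carrying an insulin core promoter-GFP reporter at a Flp-In site. Cells were sorted for the top 10% GFP about 14 days after transfection. Variant frequency log-ratios (select vs non-select, TileSeq) were rescaled so that the nonsense median is 0 and the synonymous median is 1, then averaged over biological replicates.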

Variant	AIRE transcriptional activation functional score
R356P	0.873 ± 0.25
R356S	0.974 ± 0.15
T72F	0.964 ± 0.3
T72H	1.39 ± 0.13
K131F	0.0637 ± 0.14
A145K	0.907 ± 0.56
A145M	0.474 ± 0.11
R328G	0.729 ± 0.26
R371D	1 ± 0.1
V188F	0.939 ± 0.095
V188G	0.504 ± 0.15
I209A	0.165 ± 0.097
E296S	0.991 ± 0.26
V420C	1.11 ± 0.18
V420G	0.846 ± 0.31
H396V	1.25 ± 0.42
G268L	1.05 ± 0.19
A144V	1.1 ± 0.35
I74A	0.186 ± 0.47
I74G	0.496 ± 0.28
I74P	0.409 ± 0.41
Q225R	0.916 ± 0.2
L128G	1.51 ± 0.26
R203V	1.57 ± 0.24

Variant	AIRE transcriptional activation functional score
R203G	0.547 ± 0.25
F318H	1.42 ± 0.29
R433P	0.565 ± 0.22
R433Y	0.349 ± 0.15
D288Y	1.23 ± 0.16
H458E	0.661 ± 0.096
D98A	0.771 ± 0.59
V22H	0.157 ± 0.049
V22Y	-0.0365 ± 0.39
G155Q	-0.156 ± 0.43
G155W	1.83 ± 0.1
E329A	1.11 ± 0.39
P365N	0.389 ± 0.25
P365V	0.952 ± 0.32
R110S	1.01 ± 0.43
A300W	1.22 ± 0.056
A300D	1.26 ± 0.14
E229D	0.886 ± 0.073
R149T	0.559 ± 0.36
A186Q	0.6 ± 0.13
K133H	0.287 ± 0.57
P325G	1.1 ± 0.17
T364Y	1.11 ± 0.28
T364I	0.829 ± 0.27

Variant	AIRE transcriptional activation functional score
L63P	0.339 ± 0.63
P416I	0.0784 ± 0.053
P27S	0.41 ± 0.23
P27I	0.28 ± 0.099
L177H	1.01 ± 0.47
I330A	0.828 ± 0.26
I330S	0.814 ± 0.31
L327C	0.927 ± 0.26
L283S	1.01 ± 0.19
P368Q	0.776 ± 0.12
E207S	0.372 ± 0.32
A142W	1.28 ± 0.14
V377I	1.15 ± 0.11
P380L	0.882 ± 0.31
Q94T	0.511 ± 0.44
V256T	0.8 ± 0.3
H319E	1.39 ± 0.026
K83N	0.0819 ± 0.18
D515L	-0.215 ± 0.35
D515V	0.106 ± 0.15
D515A	-0.0405 ± 0.13
D515W	-0.15 ± 0.044
K243Y	-0.257 ± 0.13
L81R	-0.201 ± 0.48

Variant	AIRE transcriptional activation functional score
R132F	-0.0252 ± 0.14
R132G	0.129 ± 0.2
A141W	1.18 ± 0.22
A141Y	1.66 ± 0.41
E53P	-0.371 ± 0.49
R190W	0.069 ± 0.047
W65Q	-0.357 ± 0.56
W65C	0.469 ± 0.22
P384K	0.962 ± 0.21
T46M	2.55 ± 0.11
K42W	-0.0922 ± 0.25
M536H	1 ± 0.085
A450V	1.19 ± 0.3
F230P	0.293 ± 0.47
F230H	0.48 ± 0.089
R174I	0.22 ± 0.17
A170M	0.0569 ± 0.083
A33R	-0.705 ± 0.25
A500K	0.785 ± 0.32
A500L	0.907 ± 0.16
T463V	1.49 ± 0.074
P233S	1.01 ± 0.3
E167H	-0.185 ± 0.41
E167W	2.34 ± 0.058

Variant	AIRE transcriptional activation functional score
S234Q	1.22 ± 0.097
S411K	1.18 ± 0.21
V226D	0.724 ± 0.24
D312R	0.976 ± 0.29
P497R	0.646 ± 0.21
P497Y	1.1 ± 0.21
A140F	1.71 ± 0.3
F82D	0.364 ± 0.38
L414E	1.08 ± 0.12
P400I	0.76 ± 0.28
V443G	1.13 ± 0.13
A404I	0.94 ± 0.23
P544A	1.28 ± 0.25
P544V	0.842 ± 0.046
G150A	-0.308 ± 0.47
H60V	-0.0783 ± 0.37
R378N	1.28 ± 0.11
V80F	0.527 ± 0.47
N295W	0.869 ± 0.029
N295D	0.921 ± 0.23
E485R	0.652 ± 0.17
M388H	1.2 ± 0.39
M388T	0.897 ± 0.22
R272V	0.896 ± 0.33

Variant	AIRE transcriptional activation functional score
V345K	1.22 ± 0.21
G498V	1.36 ± 0.095
D4L	0.0531 ± 0.29
D238C	1.24 ± 0.15
D238H	1.34 ± 0.25
A352C	1.1 ± 0.31
W455E	1.17 ± 0.072
W455H	0.823 ± 0.085
S107Q	0.12 ± 0.51
S107R	1.25 ± 0.7
C434D	0.5 ± 0.11
C434W	-0.0557 ± 0.096
L11R	0.101 ± 0.38
P95C	0.979 ± 0.17
C449L	0.195 ± 0.21
A2T	0.369 ± 0.19
D105R	0.481 ± 0.63
D105Y	1.72 ± 0.11
E17A	0.78 ± 0.58
A73S	0.179 ± 0.56
L406N	1.18 ± 0.29
L273I	1.07 ± 0.28
L273R	0.646 ± 0.2
L273P	1.11 ± 0.34

Variant	AIRE transcriptional activation functional score
T183R	0.948 ± 0.29
C314M	1.12 ± 0.02
L175E	-0.0357 ± 0.4
Q349Y	1.08 ± 0.22
F215S	0.474 ± 0.35
K245Y	1.21 ± 0.1
K245V	1.32 ± 0.035
G263K	1.27 ± 0.067
K114L	1.03 ± 0.43
K114T	1.19 ± 0.25
H30Q	-0.357 ± 0.12
C472Y	0.117 ± 0.072
A138Y	1.36 ± 0.22
A138I	1.06 ± 0.48
P115Q	1.01 ± 0.35
D297F	0.8 ± 0.32
Q44Y	0.0762 ± 0.39
S476V	0.878 ± 0.21
G260M	2.15 ± 0.087
E353M	1.19 ± 0.042
P355Q	1.24 ± 0.15
L75I	1.13 ± 0.5
L392P	0.582 ± 0.24
